Results: patent publication US20230133118A1, “COMPOSITIONS AND METHODS FOR TREATING CANCER” (Adagene AG, priority 2020, published 2023)

Target: human CD137 (human) (UniProt Q07011)
Assay: surface plasmon resonance (SPR); format not described

human CD137 (human), sequence (Q07011 24-186 limits assumed): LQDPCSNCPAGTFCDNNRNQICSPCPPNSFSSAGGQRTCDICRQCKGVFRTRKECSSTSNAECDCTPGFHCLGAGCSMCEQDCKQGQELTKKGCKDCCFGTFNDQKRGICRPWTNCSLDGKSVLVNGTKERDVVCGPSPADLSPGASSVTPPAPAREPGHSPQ
Urelumab (antibody), sequence (VH): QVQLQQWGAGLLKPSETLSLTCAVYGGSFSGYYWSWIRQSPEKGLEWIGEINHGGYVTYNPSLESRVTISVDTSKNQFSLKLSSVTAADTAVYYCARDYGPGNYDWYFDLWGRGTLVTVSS
Urelumab (antibody), sequence (VL): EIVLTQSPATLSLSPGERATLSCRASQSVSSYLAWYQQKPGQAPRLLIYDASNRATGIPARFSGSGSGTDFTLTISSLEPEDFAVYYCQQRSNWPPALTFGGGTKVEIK

Kd: 9.6 nM
Substance: Urelumab (antibody)
